Measurements as given in patent publication US20010044102, “ASSAYS AND REAGENTS FOR IDENTIFYING MODULATORS OF CDC25-MEDIATED MITOTIC ACTIVATION” (published 2001).

B1: MB1 (A1) mutant oligo (dsDNA)
DNA 1: GGGCCTGCCAACTGCACCCCGCCCGGG
DNA 2: CCCGGGCGGGGTGCAGTTGGCAGGCCC
modifications: [11,12]
B2: MB3 (A3) mutant oligo (dsDNA)
DNA 1: ACTACAGACACCTGCCACCACACCCAA
DNA 2: TTGGGTGTGGTGGCAGGTGTCTGTAGT
modifications: [12]
B3: MB2 (A2) mutant oligo (dsDNA)
DNA 1: GCACAAGACAACTGCTTAGCAAACGGG
DNA 2: CCCGTTTGCTAAGCAGTTGTCTTGTGC
modifications: [11,12]

target: GST-C92 Myc/Max heterodimer (UniProt P01106;P61244 P01106:363-454,P61244:1-160); experiment: competition; mutant oligo did not compete; conditions: tags: GST on Myc C-terminal 92 aa (C92Myc)
Sequence (P01106 363-454, chain 1 of 2): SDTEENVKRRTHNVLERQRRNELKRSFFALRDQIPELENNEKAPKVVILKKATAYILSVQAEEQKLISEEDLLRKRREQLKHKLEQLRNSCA
Sequence (P61244 whole entry, chain 2 of 2, the tested form may be a part): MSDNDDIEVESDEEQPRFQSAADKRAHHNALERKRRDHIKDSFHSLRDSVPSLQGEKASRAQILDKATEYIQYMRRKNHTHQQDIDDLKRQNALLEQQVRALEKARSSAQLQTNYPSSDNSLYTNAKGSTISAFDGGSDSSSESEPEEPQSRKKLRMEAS
Excerpt: To test whether Myc/Max complexes could efficiently bind to the isolated sites, we performed electrophoretic mobility shift assays (EMSA) on each DNA fragment, confirming that they represent functional myc-binding elements in vitro. For instance, oligonucleotides, matching the Myc binding site from F1, F2 and from the second intron of the cdc25A (MB3) were also checked by EMSA. In this case, oligonucleotides corresponding to a wild type site and a single point mutant within the consensus sequence site were used to compete with the cdc25A sites. […] Similar results were obtained for MB2 and MB3.
For the identification of the Myc/Max binding sequences within the cdc25 genomic regions we utilized an affinity chromatography procedure, similar to immunoprecipitation procedures (Okamoto et al. (1994) EMBO J. 13:4816-4822). Briefly, cdc25 (A, B and C) genomic clones were digested with the Hinfl restriction endonuclease, end-labeled with p32 and further incubated with 10 ng of the GSTC92Myc/Max complexes in the binding buffer (Ayer et al. (1993) Cell 72:211-222), followed by incubation with 20 μl of glutathione sepharose for 30 min at 4° C. Isolated complexes were washed four times in the binding buffer, eluted with proteinase K digestion, treated with phenol/chloroform and further ethanol precipitated. Precipitated material was resuspended in 10-20 μl of TE and subjected to polyacrylamide gel (PAG) electrophoresis, followed by autoradiography. Total digests were treated the same way, except affinity chromatography on the glutathione beads, and run as a control on a gel on a parallel lane with the purified material. Electrophoretic mobility shift assays (EMSA) were done either with F1 or F2 fragments or with the synthetic oligonucleotides, corresponding to MB 1, MB2 or MB3 as described in the art, c. f., Ayer et al. (1993) Cell 72:211-222. Mutant oligonucleotides correspond to the same sequence as F1 and F2 with CATGTG changed to CAACTG (for A1 and A2) or CACGTG changed to CACCTG (for A3). CM-1 oligonucleotide has been described (Ayer et al. supra).

Binding result, no binding:
B1
B2
B3
